The values that follow come from US20230140976A1 (OREGON HEALTH AND SCIENCE UNIVERSITY, published 2023).

For experiment [1], the target named is T1, human dystroglycan (DG) heterodimer of α-DG and β-DG (human, UniProt Q14118 30-653; Q14118 654-895, variable O- and N-glycosylation of α-DG (sites listed in paragraph 55)).
T1 construct: In the immunoprecipitations it came from lysates of surface-biotinylated cells; also called DAG1; Dystrophin-Associated Glycoprotein 1
T1 sequence 1: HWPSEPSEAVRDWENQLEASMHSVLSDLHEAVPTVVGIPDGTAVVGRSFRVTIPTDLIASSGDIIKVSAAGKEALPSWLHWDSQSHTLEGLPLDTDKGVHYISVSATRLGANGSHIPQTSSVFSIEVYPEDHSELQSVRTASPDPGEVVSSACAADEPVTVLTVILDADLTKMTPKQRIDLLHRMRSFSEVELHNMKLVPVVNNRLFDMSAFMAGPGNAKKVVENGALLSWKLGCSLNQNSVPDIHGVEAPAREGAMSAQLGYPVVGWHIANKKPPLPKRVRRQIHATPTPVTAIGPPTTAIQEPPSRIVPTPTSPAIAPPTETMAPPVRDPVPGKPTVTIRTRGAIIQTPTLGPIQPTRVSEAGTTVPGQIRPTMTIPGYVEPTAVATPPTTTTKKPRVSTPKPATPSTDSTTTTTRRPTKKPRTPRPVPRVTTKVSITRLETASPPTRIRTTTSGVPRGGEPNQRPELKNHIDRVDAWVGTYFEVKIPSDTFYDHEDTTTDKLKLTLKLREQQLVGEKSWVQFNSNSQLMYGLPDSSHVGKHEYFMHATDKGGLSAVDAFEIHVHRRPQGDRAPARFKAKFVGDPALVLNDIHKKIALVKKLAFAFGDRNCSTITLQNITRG
T1 sequence 2: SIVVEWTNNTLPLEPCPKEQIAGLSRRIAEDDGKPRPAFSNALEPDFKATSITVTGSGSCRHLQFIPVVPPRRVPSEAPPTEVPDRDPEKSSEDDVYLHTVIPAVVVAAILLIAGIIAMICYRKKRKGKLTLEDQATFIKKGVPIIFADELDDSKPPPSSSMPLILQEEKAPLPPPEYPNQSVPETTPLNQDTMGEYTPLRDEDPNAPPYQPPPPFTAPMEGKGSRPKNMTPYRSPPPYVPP
Put plainly: live-cell immunofluorescence on co-cultured MEpG cells with and without human DG (FIG. 3). How it is done: Example 2. Screening for antibodies of interest by live cell binding and internalization. Antibody activity was measured as binding to the surface of living cells expressing the human DG protein (“positive” cells) but not to negative controls (cells derived from an engineered conditional DG knockout mouse lacking human DG expression). The positive population was the same cell line used for immunization, MEpG cells expressing the human DG protein. The negative population was the murine MEpG line expressing green fluorescent protein (GFP) and not the human DG protein, created as previously described in Oppizzi et al., Traffic, 9(12): 2063-2072, 2008. The positive and negative populations were co-cultured in wells of Ibidi 96-well micro-plates (Ibidi, catalog #89626) and distinguishable by GFP expression. Hybridoma supernatants to be tested were diluted 1:1 with plain DMEM:F12 cell culture medium (Gibco) and added to cell-containing wells of the 96-well Ibidi plates. Each well was incubated for 60 minutes at 37° C. with the hybridoma supernatants to be tested, washed with DMEM:F12 medium, and incubated 30 minutes at 37° C. with an anti-mouse secondary antibody conjugated to the Alexa-568 fluorescent dye (Jackson Immunochemicals) diluted 1:1000 in DMEM:F12 medium. […]

For experiment [2], the target named is T2, dog dystroglycan (DG) (MDCK cells) (dog, UniProt Q9TSZ6 28-892).
T2 construct: whole, on cells; also called dog DG
T2 sequence (looked up): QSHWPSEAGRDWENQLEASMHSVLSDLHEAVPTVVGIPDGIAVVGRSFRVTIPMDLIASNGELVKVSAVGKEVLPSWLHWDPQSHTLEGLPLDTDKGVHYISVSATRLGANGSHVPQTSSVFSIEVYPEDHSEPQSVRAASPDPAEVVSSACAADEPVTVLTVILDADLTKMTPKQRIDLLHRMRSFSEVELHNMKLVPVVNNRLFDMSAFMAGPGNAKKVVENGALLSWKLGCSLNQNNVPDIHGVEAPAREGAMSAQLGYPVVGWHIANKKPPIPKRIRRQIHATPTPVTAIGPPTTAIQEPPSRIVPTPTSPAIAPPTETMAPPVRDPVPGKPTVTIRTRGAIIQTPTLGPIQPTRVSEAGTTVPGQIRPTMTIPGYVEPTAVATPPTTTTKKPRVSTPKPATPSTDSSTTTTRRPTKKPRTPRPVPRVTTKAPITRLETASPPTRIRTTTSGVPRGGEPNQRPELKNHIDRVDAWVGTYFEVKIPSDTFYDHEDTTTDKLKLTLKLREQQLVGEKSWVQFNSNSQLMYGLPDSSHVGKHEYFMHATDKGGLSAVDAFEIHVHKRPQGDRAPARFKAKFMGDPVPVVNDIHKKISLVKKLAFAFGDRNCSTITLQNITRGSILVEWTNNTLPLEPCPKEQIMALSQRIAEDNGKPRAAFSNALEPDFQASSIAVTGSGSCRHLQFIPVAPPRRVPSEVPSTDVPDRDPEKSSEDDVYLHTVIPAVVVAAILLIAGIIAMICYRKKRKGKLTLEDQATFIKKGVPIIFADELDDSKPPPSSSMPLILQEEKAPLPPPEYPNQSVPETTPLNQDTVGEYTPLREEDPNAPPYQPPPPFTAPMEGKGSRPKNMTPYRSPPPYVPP
Put plainly: not described; MDCK cells.

The target in experiment [3] is T1, human dystroglycan (DG) heterodimer of …. Put plainly: live-cell immunofluorescence on UMUC3, UMUC5, UMUC9 and UMUC10.

B1: monoclonal antibody from hybridoma DG1A11 (ATCC Patent Deposit No. PTA-126595) (antibody, V domains shown)
VH: DVQLQESGPGLVKPSQSLSLTCTVTDYAITSDYAWNWIRQFPGNKLEWMGYISYSGSTSYSSSLKSRISITRDTSKNQFFLQLNSVTPEDTATYYCARAAPFTTLTDFFDYWGQGTTLTVSS
VL: DIVMTQSHKFMSTSVGDRVTITCKASQDVTTAVAWYQQKPGQSPKLLIYWASSRHTGVPDRFTGSGSGTDYTLTISSVQAEDLALYYCQQHYSTPYTFGGGTKLEIKR
notes: Mouse monoclonal antibody (Balb/c hybridoma); Tested as hybridoma supernatant or purified antibody; also called Antibody A; lane A
Consider B1, for which the values for the binding result in experiment [1] and in experiment [2] were “binds” and “no binding”, respectively.

B2: monoclonal antibody from hybridoma DG4H4 (ATCC Patent Deposit No. PTA-126594) (antibody, V domains shown)
VH: QVTLKESGPGILKPSQTLSLTCSFSGFSLSTSGMGVGWIRQPSGKGLEWLAHIWWDDDKYYNPSLKSQLTISKDTSRNQVFLKITSVDTADTATYYCARRAYYYGSSYPMDYWGQGTSVTVSS
VL: DIVLTQSPTSLAVSLGQRATFSCKASQSVDYDGDSYMNWYQQKPGQPPKLLIYAASNLDSGIPARFSGSGSGTDFTLNIHPVEEEDAATYYCQQSNEDPLTFGAGTKLELKR
notes: Mouse monoclonal antibody (Balb/c hybridoma); also called lane F
As to B2, the binding result in experiment [2] was “no binding”; in experiment [3] it was “binds”.
